Measured values from paper PMC6219380.

Biological target: SgcC5 (unlabelled) (Streptomyces globisporus)
Assay: SEC

- stoichiometry N: 2
Substance: SgcC5 (unlabelled) (enzyme)
